According to patent US20190194326A1 (UBI US, published 2019):

Target: human CD4, membrane-bound on the surface of cells (human, UniProt P01730 26-458)
Assay: cell-based or functional assay

B1: murine monoclonal antibody B4 (mAb B4) (antibody, V domains shown)
VH: QVQLQQSGPELVKPGASVRMSCKASGYTFTDYVIHWVKQRTGQGLEWIGEIYPGSGSAYSNAKFKDKATLTADKSSNTAYMQLSSLTSEDSAVYFCARRGNGTGFAYWGQGTLVTVSA
VL: DIVLTQSPASLAVSLGQRATISCKAGQSVDYDGDSYMNWYQQKPGQPPKLLIYVASNLESGIPARFSGSGSGTDFTLNIHPVEEEDAATYYCQQSYKDPLTFGAGTKLELK
IC50, HIV entry inhibition (PhenoSense), control virus 92HT594: 0.021 µg/mL
IC50, HIV entry inhibition (PhenoSense), control virus JRCSF: 0.034 µg/mL
IC50, HIV entry inhibition (PhenoSense), control virus JRFL: 0.074 µg/mL
IC50, HIV entry inhibition (PhenoSense), isolate 92/RW/008, clade A: 0.026 µg/mL
IC50, HIV entry inhibition (PhenoSense), isolate 92/RW/024, clade A: 0.055 µg/mL
IC50, HIV entry inhibition (PhenoSense), isolate 92/TH/005, clade EA: 0.012 µg/mL
IC50, HIV entry inhibition (PhenoSense), isolate 92/TH/006, clade EA: 0.022 µg/mL
IC50, HIV entry inhibition (PhenoSense), isolate 92/TH/007, clade EA: 0.013 µg/mL
IC50, HIV entry inhibition (PhenoSense), isolate 92/TH/009, clade EA: 0.021 µg/mL
IC50, HIV entry inhibition (PhenoSense), isolate 92/TH/019, clade EA: 0.022 µg/mL
IC50, HIV entry inhibition (PhenoSense), isolate 92/TH/020, clade EA: 0.015 µg/mL
IC50, HIV entry inhibition (PhenoSense), isolate 92/TH/021, clade EA: 0.017 µg/mL
IC50, HIV entry inhibition (PhenoSense), isolate 92/TH/022, clade EA: 0.012 µg/mL
IC50, HIV entry inhibition (PhenoSense), isolate 92/TH/024, clade EA: 0.01 µg/mL
IC50, HIV entry inhibition (PhenoSense), isolate 92/UG/001, clade D: 0.018 µg/mL
IC50, HIV entry inhibition (PhenoSense), isolate 92/UG/005, clade D: 0.019 µg/mL
IC50, HIV entry inhibition (PhenoSense), isolate 92/UG/021, clade D: 0.017 µg/mL
IC50, HIV entry inhibition (PhenoSense), isolate 92/UG/024, clade D: 0.04 µg/mL
IC50, HIV entry inhibition (PhenoSense), isolate 92/UG/035, clade D: 0.011 µg/mL
IC50, HIV entry inhibition (PhenoSense), isolate 92/UG/038, clade D: 0.014 µg/mL
IC50, HIV entry inhibition (PhenoSense), isolate 92/UG/046, clade D: 0.015 µg/mL
IC50, HIV entry inhibition (PhenoSense), isolate 92/UG/053, clade D: 0.02 µg/mL
IC50, HIV entry inhibition (PhenoSense), isolate 92/UG/065, clade D: 0.015 µg/mL
IC50, HIV entry inhibition (PhenoSense), isolate 93/BR/019, clade BF: 0.013 µg/mL
IC50, HIV entry inhibition (PhenoSense), isolate 93/BR/020, clade F: 0.024 µg/mL
IC50, HIV entry inhibition (PhenoSense), isolate 93/IN/101, clade C: 0.016 µg/mL
IC50, HIV entry inhibition (PhenoSense), isolate 93/RW/029, clade A: 0.019 µg/mL
IC50, HIV entry inhibition (PhenoSense), isolate 93/TH/057, clade E: 0.023 µg/mL
IC50, HIV entry inhibition (PhenoSense), isolate 93/TH/305, clade E: 0.021 µg/mL
IC50, HIV entry inhibition (PhenoSense), isolate 93/UG/067, clade D: 0.016 µg/mL
IC50, HIV entry inhibition (PhenoSense), isolate 93/UG/070, clade D: 0.011 µg/mL
IC50, HIV entry inhibition (PhenoSense), isolate 93/UG/077, clade A: 0.012 µg/mL
IC50, HIV entry inhibition (PhenoSense), isolate 93/UG/082, clade D: 0.016 µg/mL
IC50, HIV entry inhibition (PhenoSense), isolate 93/UG/086, clade D: 0.015 µg/mL
IC50, HIV entry inhibition (PhenoSense), isolate 94/UG/103, clade A: 0.021 µg/mL
IC50, HIV entry inhibition (PhenoSense), isolate 94/UG/105, clade D: 0.021 µg/mL
IC50, HIV entry inhibition (PhenoSense), isolate 94/UG/114, clade D: 0.015 µg/mL
IC50, HIV entry inhibition (PhenoSense), isolate 94/UG/117, clade D: 0.017 µg/mL
IC50, HIV entry inhibition (PhenoSense), isolate 94/UG/118, clade D: 0.02 µg/mL
IC50, HIV entry inhibition (PhenoSense), isolate 10215-6, clade C: 0.018 µg/mL
IC50, HIV entry inhibition (PhenoSense), isolate 10362, clade C: 0.02 µg/mL
IC50, HIV entry inhibition (PhenoSense), isolate 11657-3, clade C: 0.025 µg/mL
IC50, HIV entry inhibition (PhenoSense), isolate 20635-4, clade C: 0.02 µg/mL
IC50, HIV entry inhibition (PhenoSense), isolate 21068, clade C: 0.011 µg/mL
IC50, HIV entry inhibition (PhenoSense), isolate CA1, clade A: 0.011 µg/mL
IC50, HIV entry inhibition (PhenoSense), isolate CA2, clade A: 0.018 µg/mL
IC50, HIV entry inhibition (PhenoSense), isolate CA3, clade A: 0.019 µg/mL
IC50, HIV entry inhibition (PhenoSense), isolate CC1, clade C: 0.016 µg/mL
IC50, HIV entry inhibition (PhenoSense), isolate CC2, clade C: 0.021 µg/mL
IC50, HIV entry inhibition (PhenoSense), isolate CC3, clade C: 0.012 µg/mL
IC50, HIV entry inhibition (PhenoSense), isolate CC4, clade C: 0.013 µg/mL
IC50, HIV entry inhibition (PhenoSense), isolate CC5, clade C: 0.019 µg/mL
IC50, HIV entry inhibition (PhenoSense), isolate CC6, clade C: 0.018 µg/mL
IC50, HIV entry inhibition (PhenoSense), isolate CC7, clade C: 0.013 µg/mL
IC50, HIV entry inhibition (PhenoSense), isolate CC8, clade C: 0.019 µg/mL
IC50, HIV entry inhibition (PhenoSense), isolate CC9, clade C: 0.02 µg/mL
IC50, HIV entry inhibition (PhenoSense), isolate CC10, clade C: 0.015 µg/mL
IC50, HIV entry inhibition (PhenoSense), isolate CD1, clade D: 0.016 µg/mL
IC50, HIV entry inhibition (PhenoSense), isolate CF2, clade F: 0.016 µg/mL
IC50, HIV entry inhibition (PhenoSense), isolate CF3, clade F: 0.024 µg/mL
IC50, HIV entry inhibition (PhenoSense), isolate CF4, clade F: 0.019 µg/mL
IC50, HIV entry inhibition (PhenoSense), isolate CF5, clade F: 0.018 µg/mL
IC50, HIV entry inhibition (PhenoSense), isolate CF6, clade F: 0.018 µg/mL
IC50, HIV entry inhibition (PhenoSense), isolate CF7, clade F: 0.019 µg/mL
IC50, HIV entry inhibition (PhenoSense), isolate CF8, clade F: 0.017 µg/mL
IC50, HIV entry inhibition (PhenoSense), isolate CG1, clade G: 0.018 µg/mL
IC50, HIV entry inhibition (PhenoSense), isolate CG2, clade G: 0.027 µg/mL
IC50, HIV entry inhibition (PhenoSense), isolate CG3, clade G: 0.016 µg/mL
IC50, HIV entry inhibition (PhenoSense), isolate CG4, clade G: 0.013 µg/mL
IC50, HIV entry inhibition (PhenoSense), isolate CJ1, clade J: 0.018 µg/mL
IC50, HIV entry inhibition (PhenoSense), isolate CJ2, clade J: 0.019 µg/mL
IC50, HIV entry inhibition (PhenoSense), isolate CMU02, clade EA: 0.011 µg/mL
IC50, HIV entry inhibition (PhenoSense), isolate CMU06, clade E: 0.026 µg/mL
IC50, HIV entry inhibition (PhenoSense), isolate MW/93/959, clade C: 0.019 µg/mL
IC50, HIV entry inhibition (PhenoSense), isolate MW/93/960, clade C: 0.01 µg/mL
IC50, HIV entry inhibition (PhenoSense), isolate QZ4589, clade E?: 0.036 µg/mL
average IC50, HIV entry inhibition (PhenoSense), all viruses of the table: 0.018 µg/mL
